Assay results: US20060040861A1, “Method of treating, preventing, and diagnosing prostate cancer” (priority 2004, published 2006)

Tests used:
JNK = assay: In vitro JNK assay on lysates of treated C2C12 myoblasts; format: cell-based, murine; conditions: 1.0 μg/ml
Method: (§1) Seventy-percent confluent cells were deprived of serum for 24 hours, followed by treatment with 1 μg/ml f- or g-adiponectin or 10 μg/ml anisomycin for indicated periods. After being rinsed with cold phosphate-buffered saline, cells were harvested using a scraper and collected by centrifugation at 700×g for 10 minutes at 4° C. The cell pellets were then homogenized in cell lysis buffer (20 mM HEPES, pH 7.9, 300 mM NaCl, 1 mM Na3VO4, 1 μg/ml leupeptin, 5 μg/ml aprotinin, 1 μg/ml pepstatin, and 1 mM phenylmethylsulfonyl fluoride) and rocked gently for 30 minutes at 4° C. The homogenates were centrifuged at 15,000×g for 5 minutes at 4° C., and the supernatants were saved as cell lysates and stored at −80° C. until use.
Using the stress-activated protein kinase/JNK assay kit, JNK activity was assessed with a fusion protein of the c-Jun NH2 terminus (amino acids 1 to 89) and glutathione S-transferase as a substrate according to the manufacture's instructions with some modifications as reported before (M. Onuma, et al., supra, 2003). […] The substrate fusion protein was separated by SDS-polyacrylamide gel electrophoresis, and its phosphorylation by JNK was determined by Western blot analysis using anti-phospho-c-Jun (Ser-63) polyclonal antibody. To normalize sample variations, JNK protein levels were also determined by Western blot analysis using anti-JNK antibody.

c-Jun = assay: Western blot analysis of c-Jun phosphorylation in C2C12 myoblasts; format: cell-based, murine; conditions: 1.0 μg/ml
Method: as §1
Cell lysates (100 μg of protein) were electrophoresed on 10% SDS-polyacrylamide gels and transferred to polyvinylidene difluoride membranes. After being washed and blocked, the membranes were hybridized with anti-phospho-c-Jun (Ser-63 or Ser-73) polyclonal antibody that specifically detects phosphorylated c-Jun molecules. The membranes were then stripped and re-hybridized with anti-c-Jun antibody that recognizes both phosphorylated and unphosphorylated c-Jun molecules to normalize sample variations.

B1: f-adiponectin: Recombinant human full-length (non-proteolytic) adiponectin, about 30-kDa polypeptide; lot mainly HMW form (protein, UniProt Q15848 1-244, looked up)
chain: MLLLGAVLLLLALPGHDQETTTQGPGVLLPLPKGACTGWMAGIPGHPGHNGAPGRDGRDGTPGEKGEKGDPGLIGPKGDIGETGVPGAEGPRGFPGIQGRKGEPGEGAYVYRSAFSVGLETYVTIPNMPIRFTKIFYNQQNHYDGSTGKFHCNIPGLYYFAYHITVYMKDVKVSLFKKDKAMLFTYDQYQENNVDQASGSVLLHLEVGDQVWLQVYGEGERNGLYADNDNDSTFTGFLLYHDTN
modifications: full-length
notes: Recombinant human full-length (non-proteolytic) adiponectin, about 30-kDa polypeptide; lot mainly HMW form
time of peak JNK activation after addition (JNK): 10 min
JNK activation (JNK; up to 60 minutes): further stimulated JNK activation
c-Jun phosphorylation at Ser-63 (c-Jun): augmented c-Jun phosphorylation at Ser-63
c-Jun phosphorylation at Ser-73 (c-Jun): stimulated Ser-73 phosphorylation
